From patent US20160297857A1

Molecular target: PA1b-binding site
Assay: ligand binding assay with 125I-labeled toxin

B1: PA1b polypeptide of Pisum sativum (peptide)
peptide: ASCNGVCSPFEMPPCGTSACRCIPVGLVIGYCRNPSG
  Ki: 17 nM

B2: AS37 (peptide)
peptide: ADCSGICSPFEMPPCRSSDCRCIPIALIGGFCINPIS
  Ki: 15 nM

B3: AG41 (peptide)
peptide: ASCPNVGAVCSPFETKPCGNVKDCRCLPWGLFFGTCINPTG
  Ki: 1.3 nM

B4: EG41 (peptide)
peptide: EFCSSVGSFCSPFNTNPCGYLGNCRCVPYYLYGGTCENPFG
  Ki: 72.8 nM

B5: DS37 (peptide)
peptide: DECWGPCSVLQTPPCPLSKCYCIPLFLVVGYCSHASS
  Ki: 694 nM

B6: AS40 (peptide)
peptide: AKCGEACDTQFNFCNAGDGCRCFITDAYLTLPGFCAQLST
  Ki: 10.3 nM
